# Experimental data: IntAct's records for PubMed 23274085
# B1: Sestrin-2 (Homo sapiens), P58004 (parent)
# chain: MIVADSECRAELKDYLRFAPGGVGDSGPGEEQRESRARRGPRGPSAFIPVEEVLREGAESLEQHLGLEALMSSGRVDNLAVVMGLHPDYFTSFWRLHYLLLHTDGPLASSWRHYIAIMAAARHQCSYLVGSHMAEFLQTGGDPEWLLGLHRAPEKLRKLSEINKLLAHRPWLITKEHIQALLKTGEHTWSLAELIQALVLLTHCHSLSSFVFGCGILPEGDADGSPAPQAPTPPSEQSSPPSRDPLNNSGGFESARDVEALMERMQQLQESLLRDEGTSQEEMESRFELEKSESLLVTPSADILEPSPHPDMLCFVEDPTFGYEDFTRRGAQAPPTFRAQDYTWEDHGYSLIQRLYPEGGQLLDEKFQAAYSLTYNTIAMHSGVDTSVLRRAIWNYIHCVFGIRYDDYDYGEVNQLLERNLKVYIKTVACYPEKTTRRMYNLFWRHFRHSEKVHVNLLLLEARMQAALLYALRAITRYMT
# Variants of: B1
# Conditions: with keap1_human KEAP1, Q14145
# Chain of keap1_human KEAP1, Q14145 (Q14145 whole entry): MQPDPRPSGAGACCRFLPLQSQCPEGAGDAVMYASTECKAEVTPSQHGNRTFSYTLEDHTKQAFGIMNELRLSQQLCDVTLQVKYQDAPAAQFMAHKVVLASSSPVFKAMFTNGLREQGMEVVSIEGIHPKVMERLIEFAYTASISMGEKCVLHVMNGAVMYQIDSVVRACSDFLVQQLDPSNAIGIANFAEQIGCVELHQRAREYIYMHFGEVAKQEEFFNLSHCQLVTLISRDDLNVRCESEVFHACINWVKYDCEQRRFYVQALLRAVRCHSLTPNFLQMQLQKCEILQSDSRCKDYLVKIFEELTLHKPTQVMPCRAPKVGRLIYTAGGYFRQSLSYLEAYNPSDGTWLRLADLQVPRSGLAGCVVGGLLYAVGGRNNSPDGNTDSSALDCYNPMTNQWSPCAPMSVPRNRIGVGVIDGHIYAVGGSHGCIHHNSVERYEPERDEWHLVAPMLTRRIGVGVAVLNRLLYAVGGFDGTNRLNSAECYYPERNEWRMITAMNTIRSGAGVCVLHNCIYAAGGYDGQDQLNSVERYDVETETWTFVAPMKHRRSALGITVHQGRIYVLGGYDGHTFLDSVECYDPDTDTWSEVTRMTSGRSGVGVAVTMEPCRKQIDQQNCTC
row,effect of a mutation on the interaction,Variant
1,with no effect,MIVADSECRAELKDYLRFAPGGVGDSGPGEEQRESRARRGPRGPSAFIPVEEVLREGAESLEQHLGLEALMSSGRVDNLAVVMGLHPDYFTSFWRLHYLLLHTDGPLASSWRHYIAIMAAARHQSSYLVGSHMAEFLQTGGDPEWLLGLHRAPEKLRKLSEINKLLAHRPWLITKEHIQALLKTGEHTWSLAELIQALVLLTHCHSLSSFVFGCGILPEGDADGSPAPQAPTPPSEQSSPPSRDPLNNSGGFESARDVEALMERMQQLQESLLRDEGTSQEEMESRFELEKSESLLVTPSADILEPSPHPDMLCFVEDPTFGYEDFTRRGAQAPPTFRAQDYTWEDHGYSLIQRLYPEGGQLLDEKFQAAYSLTYNTIAMHSGVDTSVLRRAIWNYIHCVFGIRYDDYDYGEVNQLLERNLKVYIKTVACYPEKTTRRMYNLFWRHFRHSEKVHVNLLLLEARMQAALLYALRAITRYMT [C125S]
